Experiment [1] has as its target acetylcholine receptor. Description: SPR, peptide at 10 uM on acetylcholine receptor. A general note: SPR reads the build-up and loss of mass on a sensor chip optically.
The target of experiment [2] is acetylcholine receptor. Description: SPR, peptide at 10 uM, acetylcholine receptor immobilized on chip.

B1: 5mer-963 (peptide)
peptide: RAPNK
Regarding B1, in experiment [1], the Binding affinity (RU) was 24 RU.

B2: 5mer-677 (peptide)
peptide: RCEMR
In the case of B2, the Binding affinity (RU) in experiment [1] was found to be 15 RU.

B3: 5mer-975 (peptide)
peptide: RFAHK
B3 gave a Binding affinity (RU) in experiment [1] of 18 RU.

B4: 5mer-982 (peptide)
peptide: KFMHK
In the case of B4, in experiment [1], the Binding affinity (RU) turned out to be 12 RU.

B5: 5mer-991 (peptide)
peptide: RPEFR
In the case of B5, the Binding affinity (RU) in experiment [1] amounted to 24 RU.

B6: 5mer-984 (peptide)
peptide: KNAHK
In the case of B6, the Binding affinity (RU) in experiment [1] is 11 RU.

B7: 5mer-678 (peptide)
peptide: KYMGR
In experiment [1], B7 registered a Binding affinity (RU) of 23 RU.

B8: 5mer-693 (peptide)
peptide: RPSKK
As to B8, in experiment [1], the Binding affinity (RU) was 17 RU.

B9: 5mer-686 (peptide)
peptide: RFNIR
For B9, the Binding affinity (RU) in experiment [1] amounted to 18 RU.

B10: 5mer-672 (peptide)
peptide: KHAPK
For B10, the Binding affinity (RU) in experiment [1] is 12 RU.

B11: 5mer-698 (peptide)
peptide: KFDWK
B11 showed a Binding affinity (RU) in experiment [1] of 12 RU.

B12: 5mer-695 (peptide)
peptide: KKPDR
Turning to B12, in experiment [1], the Binding affinity (RU) came to 26 RU.

B13: 5mer-669 (peptide)
peptide: RNPER
In the case of B13, the Binding affinity (RU) in experiment [1] stood at 24 RU.

B14: 5mer-666 (peptide)
peptide: RHDWR
In turn, B14 had a Binding affinity (RU) in experiment [1] of 18 RU.

B15: 5mer-696 (peptide)
peptide: RCEHR
Consider B15, for which, in experiment [1], the Binding affinity (RU) turned out to be 11 RU.

B16: 5mer-968 (peptide)
peptide: RIPHR
As to B16, in experiment [1], the Binding affinity (RU) was 11 RU.

B17: 5mer-687 (peptide)
peptide: RMEIR
Regarding B17, in experiment [1], the Binding affinity (RU) amounted to 22 RU.

B18: 5mer-976 (peptide)
peptide: RETNR
On to B18, for which the Binding affinity (RU) in experiment [1] worked out at 16 RU.

B19: 5mer-990 (peptide)
peptide: KEEPK
B19 gave a Binding affinity (RU) in experiment [1] of 12 RU.

B20: 5mer-972 (peptide)
peptide: KYAKR
For B20, in experiment [1], the Binding affinity (RU) is 14 RU.

B21: 5mer-970 (peptide)
peptide: KYMNR
Turning to B21, the Binding affinity (RU) in experiment [1] was determined as 33 RU.

B22: 5mer-601 (peptide)
peptide: RFCFK
In experiment [2], B22 registered a Binding affinity (RU) of 13 RU.

B23: 5mer-674 (peptide)
peptide: KETHR
For the molecule B23, the Binding affinity (RU) in experiment [1] came to 22 RU.

B24: 5mer-690 (peptide)
peptide: RAEIK
As for B24, the Binding affinity (RU) in experiment [1] worked out at 12 RU.

B25: 5mer-967 (peptide)
peptide: KKTHK
With B25, the Binding affinity (RU) in experiment [1] was 26 RU.

B26: 5mer-671 (peptide)
peptide: KMNAK
In experiment [1], B26 returned a Binding affinity (RU) of 21 RU.

B27: 5mer-981 (peptide)
peptide: KNDKK
B27: the Binding affinity (RU) in experiment [1] came to 33 RU.

B28: 5mer-684 (peptide)
peptide: KCAER
In experiment [1], B28 had a Binding affinity (RU) of 27 RU.

B29: 5mer-667 (peptide)
peptide: RDCHR
The molecule B29 displayed a Binding affinity (RU) in experiment [1] of 16 RU.

B30: 5mer-683 (peptide)
peptide: KYPDK
Consider B30, for which, in experiment [1], the Binding affinity (RU) came out at 32 RU.

B31: 5mer-998 (peptide)
peptide: RCTAK
B31 came in with a Binding affinity (RU) in experiment [1] of 18 RU.

B32: 5mer-978 (peptide)
peptide: RYDHK
Consider B32, for which the Binding affinity (RU) in experiment [1] turned out to be 30 RU.

B33: 5mer-995 (peptide)
peptide: KFTDK
Regarding B33, the Binding affinity (RU) in experiment [1] was 18 RU.

B34: 5mer-996 (peptide)
peptide: RMTKK
In experiment [1], B34 had a Binding affinity (RU) of 32 RU.

B35: 5mer-977 (peptide)
peptide: KNMIR
As for B35, the Binding affinity (RU) in experiment [1] was found to be 16 RU.

B36: 5mer-969 (peptide)
peptide: RNTVR
In turn, B36 returned a Binding affinity (RU) in experiment [1] of 27 RU.

B37: 5mer-689 (peptide)
peptide: RFSDK
For B37, the Binding affinity (RU) in experiment [1] is 20 RU.

B38: 5mer-676 (peptide)
peptide: RTMFR
Regarding B38, the Binding affinity (RU) in experiment [1] came out at 18 RU.

B39: 5mer-665 (peptide)
peptide: KTWEK
Molecule B39 gave a Binding affinity (RU) in experiment [1] of 26 RU.

B40: 5mer-994 (peptide)
peptide: KAWVR
B40 gave a Binding affinity (RU) in experiment [1] of 26 RU.

B41: 5mer-694 (peptide)
peptide: KNNAR
In turn, B41 registered a Binding affinity (RU) in experiment [1] of 24 RU.

B42: 5mer-980 (peptide)
peptide: RKPHR
The molecule B42 displayed a Binding affinity (RU) in experiment [1] of 33 RU.

B43: 5mer-979 (peptide)
peptide: RHHMK
For B43, in experiment [1], the Binding affinity (RU) is 23 RU.

B44: 5mer-983 (peptide)
peptide: RTTGR
In experiment [1], B44 gave a Binding affinity (RU) of 23 RU.

B45: 5mer-670 (peptide)
peptide: KPCVK
As to B45, the Binding affinity (RU) in experiment [1] stood at 23 RU.

B46: 5mer-697 (peptide)
peptide: KASKK
B46 registered a Binding affinity (RU) in experiment [1] of 25 RU.

B47: 5mer-973 (peptide)
peptide: RYWAR
Take B47: the Binding affinity (RU) in experiment [1] amounted to 12 RU.

B48: 5mer-688 (peptide)
peptide: RPHFK
In turn, B48 displayed a Binding affinity (RU) in experiment [1] of 31 RU.

B49: 5mer-691 (peptide)
peptide: KEWEK
B49 came in with a Binding affinity (RU) in experiment [1] of 16 RU.

B50: 5mer-692 (peptide)
peptide: RDHWK
Molecule B50 showed a Binding affinity (RU) in experiment [1] of 15 RU.

B51: 5mer-685 (peptide)
peptide: RNDIK
In experiment [1], B51 registered a Binding affinity (RU) of 21 RU.

B52: 5mer-986 (peptide)
peptide: RPMDK
As for B52, in experiment [1], the Binding affinity (RU) is 12 RU.

B53: 5mer-971 (peptide)
peptide: KMTGK
As for B53, in experiment [1], the Binding affinity (RU) was determined as 12 RU.

B54: 5mer-682 (peptide)
peptide: KPNVK
Molecule B54 showed a Binding affinity (RU) in experiment [1] of 31 RU.

B55: 5mer-964 (peptide)
peptide: KYTDR
B55 gave a Binding affinity (RU) in experiment [1] of 22 RU.

B56: 5mer-681 (peptide)
peptide: KDTMR
In experiment [1], B56 showed a Binding affinity (RU) of 18 RU.

B57: 5mer-673 (peptide)
peptide: RISPR
For B57, the Binding affinity (RU) in experiment [1] came out at 14 RU.

B58: 5mer-988 (peptide)
peptide: RCKWR
On to B58, for which, in experiment [1], the Binding affinity (RU) amounted to 17 RU.

B59: 5mer-680 (peptide)
peptide: RFTER
In experiment [1], B59 registered a Binding affinity (RU) of 21 RU.

B60: 5mer-987 (peptide)
peptide: RAHWR
As to B60, the Binding affinity (RU) in experiment [1] stood at 22 RU.

B61: 5mer-974 (peptide)
peptide: RHMMR
The molecule B61 returned a Binding affinity (RU) in experiment [1] of 26 RU.

B62: 5mer-965 (peptide)
peptide: KMEIR
In experiment [1], B62 displayed a Binding affinity (RU) of 30 RU.

B63: 5mer-997 (peptide)
peptide: RYPHR
In experiment [1], B63 showed a Binding affinity (RU) of 30 RU.

B64: 5mer-668 (peptide)
peptide: RPHAK
In turn, B64 displayed a Binding affinity (RU) in experiment [1] of 27 RU.

B65: 5mer-989 (peptide)
peptide: RCTAR
For the molecule B65, in experiment [1], the Binding affinity (RU) was 31 RU.

B66: 5mer-993 (peptide)
peptide: KEKFR
B66 gave a Binding affinity (RU) in experiment [1] of 27 RU.

B67: 5mer-992 (peptide)
peptide: RNDKK
For B67, in experiment [1], the Binding affinity (RU) is 15 RU.

B68: 5mer-679 (peptide)
peptide: KKTVK
Take B68: in experiment [1], the Binding affinity (RU) was 21 RU.

B69: 5mer-664 (peptide)
peptide: KPTWR
The molecule B69 yielded a Binding affinity (RU) in experiment [1] of 17 RU.

B70: 5mer-985 (peptide)
peptide: RDPKR
Regarding B70, in experiment [1], the Binding affinity (RU) came to 17 RU.

B71: 5mer-966 (peptide)
peptide: RPSAK
B71 had a Binding affinity (RU) in experiment [1] of 32 RU.

B72: 5mer-675 (peptide)
peptide: RKPGR
As for B72, in experiment [1], the Binding affinity (RU) worked out at 31 RU.
